Measurements published in the DeepSol protein solubility set.

Assay: soluble on expression in E. coli; label from the status in PepcDB or PDB records

Sequence | soluble on expression in E. coli
MGSDKIHHHHHHMLTGVEVRHFKSWRASEWIACAPITMFFGSNSSGKTSLLQLLLLLKQTTESSDRQQVLNLGDTHSPVDAGTFPDLLHRHEQTQSLFWRIAWQLPPDLTIALPGRKNGDHLPARELAFQARIGWHQHSDSTPNLQAQASHGRAVVEEMAYQLAGYTLGMRLRDRVKQEYELYSDPAGLFSRPSRKSPRLPSPVKCYGFPDEVQKYYKHVSFLTDLEFALEQLCRRMTYLGPLREYPRRQYTWSGTPPTGVGYRGERVIEALLASRLSSDVASGTDSDQPSALETRVAEWLKTMELIADFAVRAVAPGASLFQVWVRRAQQAPEVLMTDVGFGISQMLPVITLCYYVPKGSIVILEHPEIHLHPRAQADLADVLIDAVKTRGVQIIVESHSEHLLRRLQRRIAEDVLPSDQAALYVCTTDAEGVSHIQRLHLDPYGNITNWPKDFFGDEMGDLLAMSEAAMKRQLGQV | not soluble
MNKILIAAASSGAGKTTVTLGIMQALKKRGFAVQPFKVGPDYIDTNYHQAITGVASINLDSFLIDDDEMLASLFQKHGESADISVIEGVMGLFDGLGTDRDNASTSFIAKCTKTPVILVVDGKAISTSAAAIVDGFNRFDPELKIAGVIINRVASENHFSLIKGAIERYTDVPVLGYLPKNAAVALPERHLGLVPQEEMTELEAKWELLSDLITTHVDLDKLLEISKSSENLSTSKAQMKVADFSGLRVAYALDAAFHFYYQDNLDLIRLTGAELIPFSPLEDNEVPEADFIYIGGGFPEIFAKQLNDNRSMRKSILAAHEKGIPIYAECGGLMYLGSSLEMEGKQYEMVGVFNGISKMTTRLRKFGYCIAEPLEETLIGKKGMSIRGHEFHHSVFETTETACMKLSKKRDGEIVKEWRGGYQKGNTFASYLHIHFYQNPAILMQMFGAGKRLEHHHHHH | soluble
GMFNESDAPQPPKVLSTPLEIAANLRQLQESHDPLIITFHDRSHRFQSYVVHVDRESNTLALDEMIPRDGEKFIENGEHFRVEGFHDGVRIAWECDHALKISEVDGHRCYSGPLPQEVTYHQRRNAFRAALKLSQLVDIILDGAHLKGNGAMRGKLLDISATGCKLRFEGNVEDRLQLGQVYERFKAGNPLGLVDTMVELRHLHYEERINTTFAGVRFHNLSGQAQRKIESFVYQLQREARRFDKDDY | soluble
MSLIHIAIAEDDFRVAQIHERLIKQLDGFKIIGKAANAKETLALLKEHKADLLLLDIYMPDELGTALIPDIRSRFPEVDIMIITAATETRHLQEALRAGIAHYLIKPVTADKFRQVLLQYKEKRKLLMSQPKGIITITTDPNSSSVDKLAAALEHHHHHH | soluble
MGSDKIHHHHHHMDFIEVYPNALPNDLCDRLILAFEQHAGVVDGQTGNGVDLEKKISRDLTLDSFADLQPLKNELLGYTLKGTVDYFTKYSMALMGAVAVSVSDEQGQPVTLTPANFAALGAPRSDGLVKYLYRSGSINVQKYQQNKGGYPHWHSEQFPQNGHNEALHRVVLYMFYLNDMEEGGETEFYYQQRKISPKKGTMVIAPAGFTHTHRGNKPVSGDKYIATSWIMFNRAEQLYAVIA | not soluble
MSLEKVKVAVIGAGNRGMYAYAPYIYENSDVCEIVAVAEPKKGRRELFTKKYNLDSKNVFETLEDFFKHDKMADAVIIATNDDRHYDVAKLALEKGYHVLLEKPMSNSLDGLVHIDDLCDKYKDKIFMICHVLRYSPFYNKLKEIVESKKLGELVSIQYNENIGYWHFAHSFTRGNWRNSNETSPLILAKSCHDMDILLYLVGSRCKKISAFGSLKHLNNQNASGEMAQNCLQCLVEKKCPYSAKRIYLEKDRSINRAVHINPTEENLLNILKTSPYGRCVYRCDNNVVDNMVNILQFENGVTATFNLCAFTKENGRTIKLMFSHGEVGGDLNKNEIRIKEFGKNEEIVMNPSNQQNMVEEYDRNLIAEFIKLVSNKELEKGRVAAKEAIQSHVMAFAAEYSRVSDEVVYIEEFFDSAKQMTKEIEETEGHHHHHH | soluble
MQMYLADCIFPDIEGQLAAYKSFCELWDSGEMAKLDNFDGFQMLFRVHAPGAGRVTILFKAESDAQIFEAFAPWRAQFGIEMDFTPVIGCQDVVDYHKKLFAKMS | not soluble
ATITIETCEDPGDWTAAIGDDTFTFWRGLKDAGLLDEVIQEFHQELVETMRGLQQRVQDPPLQLRDAVLLNNIVQNFGMLDLVKKVLASHKCQMDRSREQYARDLAAL | soluble
MSTPFGLDLGNNNSVLAVARNRGIDIVVNEVSNRSTPSVVGFGPKNRYLGETGKNKQTSNIKNTVANLKRIIGLDYHHPDFEQESKHFTSKLVELDDKKTGAEVRFAGEKHVFSATQLAAMFIDKVKDTVKQDTKANITDVCIAVPPWYTEEQRYNIADAARIAGLNPVRIVNDVTAAGVSYGIFKTDLPEGEEKPRIVAFVDIGHSSYTCSIMAFKKGQLKVLGTACDKHFGGRDFDLAITEHFADEFKTKYKIDIRENPKAYNRILTAAEKLKKVLSANTNAPFSVESVMNDVDVSSQLSREELEELVKPLLERVTEPVTKALAQAKLSAEEVDFVEIIGGTTRIPTLKQSISEAFGKPLSTTLNQDEAIAKGAAFICAIHSPTLRVRPFKFEDIHPYSVSYSWDKQVEDEDHMEVFPAGSSFPSTKLITLNRTGDFSMAASYTDITQLPPNTPEQIANWEITGVQLPEGQDSVPVKLKLRCDPSGLHTIEEAYTIEDIEAGSDTKTVKKDDLTIVAHTFGLDAKKLNELIEKENEMLAQDKLVAETEDRKNTLEEYIYTLRGKLEEEYAPFASDAEKTKLQGMLNKAEEWLYDEGFDSIKAKYIAKYEELASLGNIIRGRYLAKEEEKKQAIRSKQEASQMAAMAEKLAAQRKAEAEKKEEKKDTEGDVDMD | soluble
CTEPLGLKDNTIPNKQITASSYYKTWGLSAFSWFPYYARLDNQGKFNAWTAQTNSASEWLQIDLGSQKRVTGIITQGARDFGHIQYVAAYRVAYGDDGVTWTEYKDPGASESKIFPGNMDNNSHKKNIFETPFQARFVRIQPVAWHNRITLRVELLGC | soluble
MEFMMEIQGNRKELMVSKIKNGTVIDHIPAGRAFAVLNVLGIKGHEGFRIALVINVDSKKMGKKDIVKIEDKEISDTEANLITLIAPTATINIVREYEVVKKTKLEVPKVVKGILKCPNPYCITSNDVEAIPTFKTLTEKPLKMRCEYCETIIDENEIMSQILGANNK | soluble
MLVTKKEISVANIGEELWRFSNSSYTTGSPWTETQFAEDFAQENSEYLFLVENGQWLGYIAYHFILDEAEISHVVVNGQKQHQGIGCQLMKAFKEYVKSRDITQIFLEVRESNILAQKLYEKTGFRKVAVRKNYYKEPQENAFVMCAKLRKEAQ | not soluble
MTTKPPIERIMYIELRTSLEMFRSDLVDLEALANAAKEALEQLPYIPKNPCGKGEDDDPLSGPESALRTGRLCGLVCCTATAAEGALSTCSKLIDWAYANEPEGVDDAVLADDIDGDDDDDDEGSGSNGANGGGGANGSGNGSNGSGNGGPPDGGVESAAPAGSTELAEARPSRGGIALDLPPAHAPHGAPVA | not soluble
MPTQFIRNRSAFPQGTNNDIDDFQYQNDFSSSSHQLPSTASGYSEHSSHQNFQNHSPPPGKATTDPLAGALLGLSDVITKSLISHPCGVLRRQCQVHQFAGSLHLTPVTLIPVICNSVAKQGIQTFWKGAIGSSVLWGLTNVTEIVLGDLMGLPRTFVVNGSAEKYWKHIVLKGVTFVTMTPFYISSFIETVRSESGIGGEDNKILDVLVKGVDRMRYFLTSGRDPSRRFSIIHLAIPTAGFQVGHYMLQTALYHQFFRMAKRYVNRKSPAEKTTYHDFLPQMFAQTSSMVLTDLILYPFETIVHRMYIQGTRTLIDNMDTGLSAVSMTVKYSGYFDCVRQVLETEGFWALYAGVGAVLLEYSLHQGLQQLVRACFDRGSELLRKATQGHPVVQSSQITPPISAKSSFNGPISNSFPSAGAALLSPMSTPRKHSTPPKDPTEFPTFGETVSQIGSPYQMPDRPNVFGSPPNRTRATHDSTQSLPPLQLNIRPSSGDPFSG | not soluble
MGSDKIHHHHHHMSYNFEEERVIKEIREKNAKRVLLQFPEGLKYFSIDIVKKLREKLPNVNFIISGEPSWGACDIAEDEAQQVNADLIIHFGHTPYTWYYPKFPTIFINAESNLDISENALHSLENDISKYNGRKISLTATLQHVRLLSKIKSFLEDKGYDIVIGKPSNRFMFDGQVLGCDYKAAEVEADIYVIVSGGLFHALGLGLATNKPTIKLDPYLQKSEDITNDVRKILKVRYGKILQALDKRSWVIIQGVKVGQNRPNMIKYFYDKLTEKGYDVFTVTNKVLTLDILRNLDRNYIDVFLVTSCPRLPIDDLYNYEKPVLTPGEAKMIINNSLEPYIFPW | not soluble
MPCFFFILDTSGSMSTRAHPQFSFFDLAKNFIENFIKQRTKGDNRMMVGRETDKYFLMTTQARYPKNVKVACEKLGAVVIEEIKKLHLPYGSCQLHHAILEAFKVLHVSRVQTGIDGVGIGRLISNTEPVTMILLTDGSGVAGIPIDFRLFFDPPFLGSEMTRDAFRWDQKFYTVVFRIPSTPYRPTISQLTAIDIDMPVIERLCARTGGRSFSIVSPRQIQTTIDYLLAMGNQYKIGVRFECLPAIPAPITSDEVNLVKMKFKKVIDKRPVTNIISRLNPQARPVTCHWPIPESFFPMRTMDQLPQRTSHPVILCAPIALPLHIRPELPVDKLELEPGGISDIIMEILQGRKDMTVWTYMEGSSNGPTAPFGCLRMNTLGTGITLILMPFNFPMLYSLVEEIVKEPFLNKSQVWRSKLESYFHTVPFYYNTQIRVCLDKFDVKVDYSSSMSMFYPGQLLSNLNRFKAKAREELDQMAIASKLNDSKTLKIVNPSIRIERITSRSTIIGLGNSEVDIEDDSLEGYESTPIYAGDFKIPLYPPSITDAQLDSAYRTPYSSPIEDLTSKLNRIQANIELMFDPNKITLLDMAKLGTKARFNTLGLCFFHPIFLANSTSRKFYIQKFETLQVMDSAVVDNNSPSTSGQPKRFGGEGRQGGGPPKRRRGPLGIDAYDQYRIRRSMRGSSAGSDISDISSSLGTFDQDSDMTTPGTSGMNTPISEFDDLQLQEMDSDDQLMKNLDEVQALRKKEEAQVQPKIKKPPPVPPASILSSQEILTRKIRIGSIIRKPANHCAFEEIMTLVAGITQEACSQLIKYALRESQRFKLKQLTERLENRLKTV | not soluble
MSLTELPKEFLEDIEEILKDEYDDFIKSYEESKTTGLRINTLKIDKKKLFDLELFDLNQIPWAEEGFYYDDKIDRPGRNPLHEAGAYYLQEPSAMSVIPKADIKEGEKVLDMCAAPGGKSTYILSKLNDTGLLVSNEINASRIKALGENLERFGARNCIITNTDSNSLRKTFNGYFDKVIIDAPCSGQGMFRKDEVAISDWSYAKVVECQSIQKEIIRDGYKMLKKDGILIYSTCTFSREENEHVINEFISEYPHAELIEMERLWPHKIKGEGHFVAKIKKLEEEECNVKELKIKNLDKEIKDYREFEKKFLKVDFYSNKKNKFYLRGENLYLLPEIYPDTKKLKVLRYGLHLGVLKKNRFEPSHALSHYLKVEDVKNVENFSVQSESILKYLKGDVVNSNDSRGWVLVSVEGIPLGWGKESSGVIKNHYPKGLRKVEGHHHHHH | soluble
TLIHIYDTSEPELDVQVTGYQWKWQYKYLGQDVEYFSNLATPQDQIHNRQAKDEHYLLEVDEPLVLPVGTKVRFLITSSDVIHSWWVPAFAVKRDAIPGFVNEAWTKVDEPGIYRGQCAELCGKDHGFMPIVVDVKPKAEFDQWLAKRKEEAAKVKELTSKEWTKEELVARGDKVYHTICAACHQAEGQGMPPMFPALKGSKIVTGPKEHHLEVVFNGVPGTAMAAFGKQLNEVDLAAVITYERNAWGNDDGDMVTPKDVVAYKQK | not soluble
GPGSGDPYWAYSGAYGPEHWVTSSVSCGGSHQSPIDILDHHARVGDEYQELQLDGFDNESSNKTWMKNTGKTVAILLKDDYFVSGAGLPGRFKAEKVEFHWGHSNGSAGSEHSVNGRRFPVEMQIFFYNPDDFDSFQTAISENRIIGAMAIFFQVSPRDNSALDPIIHGLKGVVHHEKETFLDPFILRDLLPASLGSYYRYTGSLTTPPCSEIVEWIVFRRPVPISYHQLEAFYSIFTTEQQDHVKSVEYLRNNFRPQQALNDRVVSKS | soluble
